Measured values as given in article PMC4856084, “The SEB-1 Transcription Factor Binds to the STRE Motif in Neurospora crassa and Regulates a Variety of Cellular Processes Including the Stress Response and Reserve Carbohydrate Metabolism”.

Biological target: GST-SEB-1 (Neurospora crassa, UniProt Q7SH58 1-575)
Experiment: competition
Conditions: protein: recombinant; tags: N-terminal GST (pGEX-4T1); blunt

B1: STRE1 oligonucleotide (18 bp) (dsDNA)
DNA 1: GGGATCCCCCTTGAATAC
DNA 2: GTATTCAAGGGGGATCCC
binding result: binds
